Assay results reported in patent publication US20230235078A1 (University of Texas, published 2023).
One block for each molecule: values may come before it.

How the values were obtained:
Type I collagen = test: ELISA on coated type I collagen with conditioned media
[1] = target: T1, Human DDR1 extracellular domain (ECD) protein (human, UniProt Q08345 21-417); test: titration ELISA on human DDR1
T1 construct: it is treated here as the same molecule; also called recombinant human DDR1 ECD; huDDR1 ECD; not shown: 6xHIS-tag

mouse DDR1 ECD = target: T2, mouse DDR1 ECD (mouse, UniProt Q03146 22-415); test: titration ELISA on mouse DDR1
T2 construct: extracellular domain; construct not described; also called mouse ECD
T2 sequence (looked up): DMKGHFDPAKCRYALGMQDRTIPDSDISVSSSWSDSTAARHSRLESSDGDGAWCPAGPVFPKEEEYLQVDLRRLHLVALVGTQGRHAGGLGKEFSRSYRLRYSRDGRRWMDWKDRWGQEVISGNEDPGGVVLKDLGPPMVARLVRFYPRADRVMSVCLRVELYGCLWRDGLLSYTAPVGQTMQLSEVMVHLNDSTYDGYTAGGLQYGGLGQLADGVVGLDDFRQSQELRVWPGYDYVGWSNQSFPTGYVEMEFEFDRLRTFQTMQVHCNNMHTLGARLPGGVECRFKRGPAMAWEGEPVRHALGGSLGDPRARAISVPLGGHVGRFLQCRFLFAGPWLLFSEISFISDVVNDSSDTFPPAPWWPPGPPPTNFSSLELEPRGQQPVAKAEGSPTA

[2] = target: T1, Human DDR1 extracellular domain (ECD) …; test: titration ELISA; target not given, human DDR1 assumed
Target sequence in this assay (Q08345 21-417): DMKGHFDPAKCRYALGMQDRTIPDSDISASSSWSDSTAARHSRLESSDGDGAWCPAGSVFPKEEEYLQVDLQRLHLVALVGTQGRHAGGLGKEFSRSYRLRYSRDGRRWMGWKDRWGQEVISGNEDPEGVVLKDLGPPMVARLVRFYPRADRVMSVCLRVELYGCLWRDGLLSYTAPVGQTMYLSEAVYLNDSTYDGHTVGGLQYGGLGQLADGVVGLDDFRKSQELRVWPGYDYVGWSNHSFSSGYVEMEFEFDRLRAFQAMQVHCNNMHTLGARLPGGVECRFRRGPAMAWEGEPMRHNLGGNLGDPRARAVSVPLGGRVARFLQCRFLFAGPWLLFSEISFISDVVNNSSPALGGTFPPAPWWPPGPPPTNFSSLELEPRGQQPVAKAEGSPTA

human DDR2 ECD = target: T3, human DDR2 ECD (human, UniProt Q16832 22-399); test: ELISA, DDR2 ECD coated, antibody at 1 ug/ml, HRP anti-rabbit detection
T3 construct: extracellular domain; also called DDR2 ECD protein
T3 sequence (looked up): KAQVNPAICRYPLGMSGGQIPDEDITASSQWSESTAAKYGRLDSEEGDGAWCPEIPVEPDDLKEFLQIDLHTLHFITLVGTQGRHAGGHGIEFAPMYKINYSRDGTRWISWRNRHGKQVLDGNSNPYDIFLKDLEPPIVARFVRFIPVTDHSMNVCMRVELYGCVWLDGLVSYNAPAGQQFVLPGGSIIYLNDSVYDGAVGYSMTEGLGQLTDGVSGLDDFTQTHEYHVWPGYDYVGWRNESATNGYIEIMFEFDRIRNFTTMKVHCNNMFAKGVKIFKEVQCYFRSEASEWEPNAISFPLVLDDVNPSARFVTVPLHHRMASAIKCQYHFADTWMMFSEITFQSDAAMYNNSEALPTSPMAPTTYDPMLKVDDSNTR
Method: FIG. 19. Determination of cross-reactivity of a panel of monoclonal antibodies to human DDR2 using ELISA method. DDR1 or DDR2 ECD protein was coated on a high binding plate and each of monoclonal antibodies at 1 ug/ml concentration was added for binding detection with HRP conjugated anti-rabbit antibody (Jackson ImmuneResearch, PA).
To determination cross-reactivity of a panel of anti-human DDR1 monoclonal antibodies to human DDR2 ECD, an ELISA method was used. DDR1 ECD or DDR2 ECD protein was coated on a high binding plate and each of monoclonal antibodies was applied at 1 ug/ml concentration and binding was detected using HRP conjugated anti-rabbit antibody (Jackson ImmuneResearch, PA). Monoclonal antibodies DDR1-3; DDR1-9; DDR1-10; DDR1-14 and DDR1-33 were specific for DDR1 epitopes, while clones DDR1-13; DDR1-15; DDR1-21; DDR1-22 and DDR1-34 appear to recognize epitopes present on both DDR1 and DDR2 ECD.

[3] = target: T1, Human DDR1 extracellular domain (ECD) …; test: BLI (Octet 96-Red), antibody on protein A biosensors, recombinant DDR1 0.1-200 nM, 1:1 fit
Method: Binding affinity of anti-DDR1 monoclonal antibodies determined using Bio-layer interferometry (BLI) sensor-based Octet instrument. […] Following a short baseline in kinetics buffer, the loaded biosensors were exposed to a series of recombinant DDR1 protein at 0.1-200 nM and background subtraction was used to correct for sensor drifting. All experiments were performed with shaking at 1,000 rpm. Background wavelength shifts were measured from reference biosensors that were loaded only with antibody. Kinetic sensorgrams for each antibody are shown in FIGS. 10A-B. ForteBio's data analysis software was used to fit the data to a 1:1 binding model to extract an association rate and dissociation rate. The KD was calculated using the ratio of koff/kₒₙ and the estimated values of KD for DDR1 mAbs in Table 13.
Target sequence in this assay (Q08345 21-417): as the sequence (Q08345 21-417) above

[4] = target: T1, Human DDR1 extracellular domain (ECD) …; test: ELISA, ECD protein coated at 2 ug/ml, antibody titration
Method: (§1) FIG. 18A-C. Determination of DDR1 antibody binding to ECD and DS or DSL domains using ELISA method. Recombinant DDR1 extracellular (ECD) protein and domain proteins were coated on a high binding 96-well plates at concentration at 2 μg/ml. (FIG. 18A) DDR1-9Hu antibody titration was used to determine binding curves and EC₅₀s. […] (FIG. 18C)
(§2) Antibody binding domain determination. To determine the binding of DDR1-9 (FIG. 18B) and DDR1-14 (FIG. 18C), and humanized DDR1-9hu-Abl to ECD and DS or DSL domains an ELISA method was used (FIG. 18A). Recombinant DDR1 extracellular (ECD) protein and domain deletion proteins were coated onto high binding 96-well plates at concentration at 2 ug/ml. […] Recombinantly expressed domain proteins were coated on a high-binding 96-well plate (Fisher Scientific) at concentration at 2 ug/ml. A series of antibody titrations was used to determine binding EC50. Deletion of DSL domain of DDR1 ECD impaired the bindings of both DDR1-9 and DDR1-14 antibodies. […] Fragment with DSL deletion totally abolished DDR1-9, DDR1-14, and DDR1-9Hu binding.

[5] = target: DDR1 ECD fragment with deletion of DS domain (Homo sapiens (Human)) (UniProt Q08345); test: ELISA, domain deletion protein coated at 2 ug/ml, antibody titration
[6] = target: T1, Human DDR1 extracellular domain (ECD) …; test: BLI (Octet); target not given, recombinant DDR1 assumed
[7] = target: DDR1 ECD fragment with deletion of DS domain (Homo sapiens (Human)) (UniProt Q08345); test: ELISA, ECDΔDS-His coated at 2 µg/ml, antibody titrated
[8] = target: T1, Human DDR1 extracellular domain (ECD) …; test: ELISA, ECD-His coated at 2 µg/ml, antibody titrated
Method: as §1, §2

- percent of WT collagen binding affinity (Type I collagen): 50%
Molecule: mouse DDR1 ECD T58A (from UniProt Q03146 22-415) (receptor)

- EC50 (read off the curve) [1]: ~0.02 µg/mL
- EC50 (read off the curve) (mouse DDR1 ECD): ~0.02 µg/mL
- EC50 [2]: 0.148 µg/mL
- binding result (human DDR2 ECD): no binding (tested: 1 ug/ml)
- Kd [3]: 0.797 nM
- koff [3]: 0.000493 s⁻¹
- kon [3]: 619000 M⁻¹ s⁻¹
B1: DDR1-33 (antibody, V domains shown)
VH: QSVEESGGRLVTPGGSLTLTCTVSGFSLSSYDMSWVRQAPGKGLEWIGISWNSGFVDYASWAKGRFSISKTSTTVDLKITSPTTEDTATYFCARLGADDIYYFNLWGPGTLVTISS
VL: ELVMTQTPASVEAAVGGTVTIKCQASETISSRLAWYQQKPGQPPKLLIYQASKLPSGVPSRFKGTGSGTEYTLTISDLECADAATYYCQGCYYGGGSFYDSAFGGGTEVVVK
notes: Rabbit variable domains; also called anti-huDDR1 #33 antibody; DDR1-33K/DDR1-33H

- EC50 [4]: 0.083 µg/mL
- EC50 [5]: 0.168 µg/mL
- Kd [6]: 0.39 nM
- koff [6]: 6.52e-05 s⁻¹
- kon [6]: 165000 M⁻¹ s⁻¹
B2: DDR1-9Hu-Ab1 (antibody, V domains shown)
VH: QVQLVESGGRVVQPGRSLRLSCTASGFSLNRYYMLWVRQAPGKGLEWIGTISYGDTTYYASWAKGRFTISRDNSKNTLYLQMNSLRAEDTAVYYCARADTGDNGYLGLQLWGQGTLVTVSS
VL: DIQMTQSPSSVSASVGDRVTITCQASQSIGSVLAWYQQKPGKAPKLLISGVFDLASGVPSRFSGSGSGTDFTLTISSLQPEDFATYYCQYIPYGSSPFGGGTKVEIK
notes: Humanized form of DDR1-9; also called DDR1-9hu-Abl; humanized DDR1-9hu antibody

- EC50 (read off the curve) [7]: 0.2 µg/mL
- EC50 (read off the curve) [8]: ~0.2 µg/mL
- EC50 [2]: 0.183 µg/mL
- binding result (human DDR2 ECD): no binding (tested: 1 ug/ml)
- Kd [3]: 0.236 nM
- koff [3]: 7.35e-05 s⁻¹
- kon [3]: 311000 M⁻¹ s⁻¹
B3: DDR1-9 (antibody, V domains shown)
VH: QSLEESGGRLVTPGTPLTLTCTASGFSLNRYYMLWVRQAPGEGLEWIGTISYGDTTYYASWAKGRFTISKTSTTVDLKMTSPTTEDTATYFCARADTGDNGYLGLQLWGPGTLVTVSS
VL: ELVMTQTPASVEAAVGGTVTIKCQASQSIGSVLAWYQQKPGQRPKLLISGVFDLASGVPSRFKGSGSGTEFTLTISDLECADAATYYCQYIPYGSSPFGGGTEVVVK
notes: Rabbit variable domains; also called anti-huDDR1 antibody #9; DDR1-9K/DDR1-9H

- binding result (mouse DDR1 ECD): no binding
- EC50 [2]: 0.0713 µg/mL
- binding result (human DDR2 ECD): no binding (tested: 1 ug/ml)
- Kd [3]: 0.113 nM
- koff [3]: 2.27e-05 s⁻¹
- kon [3]: 202000 M⁻¹ s⁻¹
B4: DDR1-14 (antibody, V domains shown)
VH: QSVKESGGRLVTPGTPLTLTCTVSGIDLSYYAMSWVRQAPGKGLEYIGIINGRGDTGYATWAKGRFTISKTSTTVDLRITSPTIEDTATYFCAREDSAIPFIVGNYYGMDLWGPGTLVTVSS
VL: ELDMTQTPASVSEPVGGTVTIKCQASQSISSYLAWYQQKPGQPPKRLIFEASTLASGVPSRFSGSGSGTDFTLTISDLECADAATYYCQNNNGFSGSNFNNFGGGTEVEIK
notes: Rabbit variable domains; also called anti-huDDR1 antibody #14; DDR1-14K/DDR1-14H

- EC50 (read off the curve) [1]: ~0.02 µg/mL
- binding result (mouse DDR1 ECD): no binding
- EC50 [2]: 0.0598 µg/mL
- binding result (human DDR2 ECD): no binding (tested: 1 ug/ml)
- Kd [3]: 1.1 nM
- koff [3]: 0.00191 s⁻¹
- kon [3]: 1.73e+06 M⁻¹ s⁻¹
B5: DDR1-3 (antibody, V domains shown)
VH: QSVKESGGRLVTPGTPLTLTCTVSGIDLSSYAMSWVRQAPGKGLEWIGTINIGGGTWDATWARGRFTISRTSTTVDLKITSPTIGDTATYFCARDVDAHTLTYFTLWGPGTLVTISS
VL: ELVLTQTPASVSEPVGGTVTIKCQASQTISSWLSWYQQKPGQPPKLLIYYAFNLASGVPSRFKGSGSGTEFTLTISDLECADAATYYCQQGISSSNVDNVFGGGTEVVVK
notes: Rabbit variable domains; also called anti-huDDR1 antibody #3; DDR1-3K/DDR1-3H
